Measurements as given in patent US20150351390A1, “COMPOSITIONS AND METHODS FOR AUXIN-ANALOG CONJUGATION” (PIONEER HI-BRED INTERNATIONAL, INC., priority 2012, published 2015).

How the values were obtained:
[1] = LC-MS assay of GH3 conjugation of IAA with Asp or Glu; assay type: biochemical; conditions: for kcat (hrs−1) IAA-Asp: conjugation of IAA with Asp by recombinant GH3 protein, IAA-Asp product by LC-MS; for kcat (hrs−1) IAA-Glu: conjugation of IAA with Glu by recombinant GH3 protein, IAA-Glu product by LC-MS; for Conjugation of Glu to IAA / IAA conjugation activity with Asp or Glu: result in words
Protocol: (§1) To detect and monitor the formation of acyl conjugates with 2,4-D or dicamba, a sensitive LC-MS method was developed using the respective amino acid conjugate standards. […] The reaction was performed at 30° C., 105 rpm, for 3 hours in buffer containing 20 mM Tris-HCl (pH 8.0), 5 mM MgCl2, 5 mM auxin (IAA, 2,4-D or dicamba), 5 mM ATP, 5 mM Asp or Glu, 1 mM DTT and 44 to 164 μg/mL purified GH3 protein in 100 μL reaction. After 3 hours of reaction, 400 μL 100% MeOH was added to the reaction mixture for protein precipitation. The supernatant was diluted 20× in water and then analyzed by LC-MS (AB Sciex 4000 QTrap coupled with Shimadzu Nexera UHPLC) using a Phenomenex Luna 3 μm Phenyl-Hexyl (00B-4256-Y0) column. The concentration of the conjugates was calculated based on the standards. Kinetic parameters were estimated by fitting initial velocity values to the Michaelis-Menten equation.
(§2) The GH3 superfamily conjugase activity analysis of IAA, 2,4-D or dicamba with Asp or Glu was done using LC-MS to analyze the final conjugate products as described in Example 1. Protein sequences of GH3 homologs (Table 3) were obtained from public databases (NCBI, http://www.ncbi.nlm.nih.gov/) by Blast analysis of AtGH3.17 protein sequence (accession # Q9FZ87). Coding sequences were designed for optimal expression in E. coli based on the protein sequences and synthesized. Synthesized coding sequences along with N-term his-tag coding sequences were cloned into a pET24a-based E. coli expression vector. The E. coli expression vectors were transformed into OverExpress C41(DE3) cells (Lucigen) for protein expression. Recombinant E. coli strains were inoculated into 5 ml LB media supplemented with 40 mg/L kanamycin and cultured overnight at 37° C. The overnight culture (0.5 mL) was inoculated into 50 mL LB medium plus 40 mg/L kanamycin and grown at 30° C. until OD600 reached 0.6. The cultures were induced with 0.2 mM IPTG at 16° C., 230 rpm overnight. Cells were harvested by centrifugation at 7,000 rpm for 10 mins. The cell pellet from 50 mL of cell culture was frozen and thawed twice and then lysed in 800 μL lysis buffer A (150 mM NaCl, 50 mM Tris-HCl pH 8.0, 5 mM MgCl2, 10% glycerol) plus 20 mM imidazole, 1 mM DTT, 0.2 mg/ml lysozyme, 1/200 protease inhibitor cocktail (EMD set3, EDTA free) and 1/2000 endonuclease. Lysate was then centrifuged at 13,000 rpm for 30 min at 4° C. Supernatant was loaded onto 200 μL Ni-NTA columns pre-equilibrated with buffer A with 20 mM imidazole at 4° C. Each column was then washed with (1) 2×800 μL of buffer A with 10 mM imidazole, (2) 2×800 μL of buffer A with 20 mM imidazole and (3) 2×200 μL of buffer A with 50 mM imidazole. Protein was eluted with 200 μL of buffer A with 250 mM imidazole. The concentration was measured by Bradford assay. Purified protein was used in conjugation reaction assays as described in example 1.

[2] = LC-MS assay of GH3 conjugation of 2,4-D with Asp or Glu; assay type: biochemical; conditions: for kcat (hrs−1) 2,4-D-Asp: conjugation of 2,4-D with Asp by recombinant GH3 protein, 2,4-D-Asp product by LC-MS; for kcat (hrs−1) 2,4-D-Asp / kcat (hrs−1) 2,4-D-Glu: 5 mM 2,4-D substrate; for kcat (hrs−1) 2,4-D-Glu: conjugation of 2,4-D with Glu by recombinant GH3 protein, 2,4-D-Glu product by LC-MS; for 2,4-D conjugation activity with Asp or Glu: result in words
Protocol: as §1, §2

B1: AIGH3-14: GH3 protein, accession EFH47823 (protein, listed as Arabidopsis lyrata)
chain: MLPKFDPTDQKACLSLLEDVTTNVKQIQDSVLEAILSRNARTEYLSGFLNGQVDKQSFKKNLPVVTYEDIRPYIDRIANGEPSDLICDRPISVLLTSSGTSGGVPKLIPLTTDELEQRISFASLYRPLLYKYVEGIRERKSFMLYFVTRESETASGILVRTMITCVLKSLKPSNSFIWDQTQISPHGISTCSDTTQSMYCQLLCGLLQRDNVGRLGAPFASSFLKIIKFLEDHWPEFCSNIRTGRLSDWITDPQCVSGIGKFLTAPDPELASLIEQECSQTSWEAIVKRLWPKAKCIEAIVTGTMAQYIPLLEFYSGGLPVISTFYGSSECFIGLNLNPLSKPSDVSYTIIPCMAYFEFLEVGKDYQETGHDPAEKPVVVDLVDVKIGHDYEPVVTTFAGLYRYRLGDVLRVTGFYNNAPQFHFVGRQKVVLSIDMDKTYEEDLLKAVTNAKLLLEPHDLMLMDFTSRVDSSSFPGHYVLYWELGSKVKDAKLELDPNVLEECCFTIEESLDAVYRKGRKNDKNIGPLEIKVVKSGAFEELMNLFLSRGSSVSQYKTPRSVTNEEAVKILESNVVSEFLSRKTPSWELHELYSNR
kcat (hrs−1) IAA-Asp [1]: 0.000 h⁻¹
kcat (hrs−1) IAA-Glu [1]: 1.756 h⁻¹
Conjugation of Glu to IAA [1]: can also conjugate Glu to IAA
kcat (hrs−1) 2,4-D-Asp [2]: 0.140 h⁻¹
kcat (hrs−1) 2,4-D-Glu [2]: 0.322 h⁻¹

B2: AtGH3-12: GH3 protein, accession Q9LYU4 (protein, listed as Arabidopsis thaliana)
chain: MKPIFDINETFEKQLKDLTSNVKSIQDNLLEEIITPNTKTEYLQRFLIDRFDKELFKKNVPIVSYEDIKPYLDRVVNGESSDVISARTITGFLLSSGTSGGAQKMMPWNNKYLDNLTFIYDLRMQVITKHVKGVEEGKGMMFLFTKQESMTPSGLPARVATSSYFKSDYFKNRPSNWYYSYTSPDEVILCPNNTESLYCHLLCGLVQRDEVVRTGSIFASVMVRAIEVLKNSWEELCSNIRSGHLSNWVTDLGCQNSVSLVLGGPRPELADTIEEICNQNSWKGIVKRLWPNTKYIETVVTGSMGQYVPMLNYYCNDLPLVSTTYGSSETTFGINLDPLCKPEDVSYTFMPNMSYFEFIPMDGGDKNDVVDLEDVKLGCTYEPVVTNFAGLYRMRVGDIVLVTGFYNNAPQFKFVRRENVVLSIDSDKTNEEDLFKAVSQAKLVLESSGLDLKDFTSYADTSTFPGHYVVYLEVDTKEGEEKETAQFELDEEALSTCCLVMEESLDNVYKRCRFKDGSIGPLEIRVVRQGTFDSLMDFFISQGASTGQYKTPRCIKSGKALQVLETCVVAKFFSI
kcat (hrs−1) IAA-Asp [1]: 0.000 h⁻¹
kcat (hrs−1) IAA-Glu [1]: 10.015 h⁻¹
Conjugation of Glu to IAA [1]: can also conjugate Glu to IAA
kcat (hrs−1) 2,4-D-Asp [2]: 0.002 h⁻¹
kcat (hrs−1) 2,4-D-Glu [2]: 0.026 h⁻¹

B3: ZmACF88044: GH3 protein, accession ACF88044 (protein)
chain: MATYEDLQPYIRRIADGDRSPILSGHPVSEFLTSSGTSAGERKLMPTIEDELNRRQLLYSLQMPVMNLYVPGMDKGKALHFLFVKSETKTPGGLAARPVLTSYYKSNHFKNRPFDAYNNYTSPTAAILCADAFQSMYAQMLCGLCQRQDVLRVGAVFASGLLRAIRFLQLNWEQLAEDIEAGSLTPRVTDPSVREAVAGILRADPELAALVRSECSKGDWAGIITRIWPSTKYLDVIVTGAMAQYIPTLKYYSGGLPMACTMYASSECYFGLNLRPMCDPSEVSYTLMPNMCYFEFLPMDSAAASGGDASQLVDLARVEVGREYELVITTYAGLNRYRVGDVLQVTGFHNSAPQFRFVRRKNVLLSIESDKTDEAELQRAVERASALLRPHGAAVVEYTSQAYTKSIPGHYVIYWELLAKGPAGGAAVGEGTLERCCLEMEEALNTVYRQSRVADGSIGPLEIRVVRPGTFEELMDYAISRGASINQYKVPRCVTFPPIIELLDSRVVSSHFSPALPHWTPGQRSDSD
modifications: Zea mays
kcat (hrs−1) IAA-Asp [1]: 0.000 h⁻¹
kcat (hrs−1) IAA-Glu [1]: 0.000 h⁻¹
IAA conjugation activity with Asp or Glu [1]: IAA-inactive
kcat (hrs−1) 2,4-D-Asp [2]: 0.000 h⁻¹
kcat (hrs−1) 2,4-D-Glu [2]: 0.033 h⁻¹
2,4-D conjugation activity with Asp or Glu [2]: 2,4-D conjugases

B4: AtGH3-19: GH3 protein, accession AAG60122 (protein, listed as Arabidopsis thaliana)
chain: MSLSVELKDLEVLTTNAKQIQDDVLKEILTLNANTEYLKRFLDGSSDKELFKKNVPVVSYNDVKPYIERVANGEPSDVISGGTITRFVQSTGTSGGIHKIFPVNDKYIENLGYLLAVSSLITSNDKVDEKGKKMAFLYNRLESKTPSGLALSSSFTSYFMSDYFKNRSSKCNSEYTSPDQVILCPDNNQSVYCHLLCGLSQREKVVGVSATFAHALIKAINALQIYWKELSSNIRSGHVSEWITDLDCKNAVSAILGGPDPELADVIEQECSHKSWEGIITRLWPKAKFIECIVTGQMAQYIPTLDFYSNKLPIVSMVYGSSESIFGVNVDPLSKPQDVSYTFLPNISYFEFLPIDHEEDMNTIVDLVGVKLGCYYETVVTSYFGLHRYLIGDILQVTGFYNNTPQFRFVRRKNIVLSVNSEATTEQDILKGLASATLVLESSNSMLTGFTCYADISSFPGHYVFYWELKAKDVDDVVELDENVLEECCYALEESFDALYKRLRSKEGSIGALEIKVVQQGTFDSLMEYFISKGGSVAQYKTPMCINSSETLAVLEDKVIARFYSQKSPPLNL
kcat (hrs−1) IAA-Asp [1]: 0.000 h⁻¹
kcat (hrs−1) IAA-Glu [1]: 3.177 h⁻¹
Conjugation of Glu to IAA [1]: can also conjugate Glu to IAA
kcat (hrs−1) 2,4-D-Asp [2]: 0.014 h⁻¹
kcat (hrs−1) 2,4-D-Glu [2]: 0.048 h⁻¹

B5: AtGH3-7: GH3 protein, accession AAC00604 (protein, listed as Arabidopsis thaliana)
chain: MSLTSDLSEKSSDKMKVLEDLTSNVTQIQDNVLEEILTLNANTNYLQKFFLGSFDKESFKKNVPVVTYEDVKPYIERVVNGEPSNVISARPITGFVLSTGTSGGAQKMMPWNEKYLDNLTFMYDLRMHIISNNVKDVEKGKAMMFYFTKLESITPSGLPARVASSSYLKSNYFKNRPSNWYYSYTSPDEVTLCPDNKQNLYCHLLCGLVQRNEVTRMGSIFASVMVRAIKFLEDSWEELCSNIRSGQLSEWITDIGCRDSVSLVLGGPHPEAADTIEQICNQKCWKGIITRLWPKAKYIETIVTGSMVQYVPTLNYYSNNMLPLISTIYASSETQFGLNLNPMCKPEDVSYTFMPNVSYFEFIPVDGDKNDVVDLADVKLGCCYEAVVTNFSGLYRIRVGDILVVTGFHNKAPQFRFIRRDNVVLSIDLDKTNEDDLFKAVNNAKLTLDSSHLMLIDFTSYADISTIPGHYVVYWEVKNKNEDKKSKKHIELKEETFSECCLLMEDSLDSVYKICRFKEESVGPLEIKVVRQGTFDSLMDYFISQGASIGQYKTPRCIKSGKALEVLEENVVATFFST
kcat (hrs−1) IAA-Asp [1]: 0.000 h⁻¹
kcat (hrs−1) IAA-Glu [1]: 5.361 h⁻¹
Conjugation of Glu to IAA [1]: can also conjugate Glu to IAA
kcat (hrs−1) 2,4-D-Asp [2]: 0.000 h⁻¹
kcat (hrs−1) 2,4-D-Glu [2]: 0.000 h⁻¹

B6: PpGH3-1: GH3 protein, accession CAD42870 (protein, listed as Physcomitrella patens)
chain: MASEVAKPVENGIHPKLEQSFDAPAATKPSNSELLKLHRDGVPFVMPSKRGIDTTAPDFDPQDFLDLLAEDVMFIQHEKLREILEVQADVEYLRRVGLNGRTDVESFRKCVPIVSYGDLEADIMRVVNGEKTPIFTVDPIVTLNLSSGTTAGKPKFIPSTTRAYEYFMFLQTFVTSIYRREFPGYKDGTSFTLAFAGKQIDTPSGIKAGAQSTNHFRGPMFRNRVRNANREYCVPDEVILSDDTTQSMYCHLLCALAQAPEIVKVYGTFAASIVSAVRALQKHWSEIVEDIRTGTLNAKITEPEMRTAVQQMLHPNPDLASRIEEECSKDNWEGILPRLFPNAHFVSCVISGSMLQYAPALKHFSGHLPTISLAYAACECSFIGFNPSMKCAPEDITYMLWPETAYYEFIPLDEDSNPEQDGDVVRTVEACDLEVGRQYELVVTNVIGLYRYRLGDVLTMKRFHKTAPVFEFVRRKNVILSVHTDKTDEKELQSVVNLATEALAGTGMELSDYTSTADVSTLPGRYVIFWEMVDSSDLDYDVLQHCANTLDANFNSDYRRWRSGHQIGPLELRIVKEGTFNRVMDSAVARGASPSQYKPPRCVNNPHTRQILDDGLVASFHSTITPNPAPIALTGS
kcat (hrs−1) IAA-Asp [1]: 0.000 h⁻¹
kcat (hrs−1) IAA-Glu [1]: 0.000 h⁻¹
IAA conjugation activity with Asp or Glu [1]: IAA-inactive
kcat (hrs−1) 2,4-D-Asp [2]: 0.078 h⁻¹
kcat (hrs−1) 2,4-D-Glu [2]: 0.122 h⁻¹
2,4-D conjugation activity with Asp or Glu [2]: 2,4-D conjugases
